Data: patent US20240293504A1

Target: CD91 (mouse) (UniProt Q91ZX7)
Experiment: cell-based or functional assay

Sequence of UniProt Q91ZX7 (Q91ZX7 20-4545): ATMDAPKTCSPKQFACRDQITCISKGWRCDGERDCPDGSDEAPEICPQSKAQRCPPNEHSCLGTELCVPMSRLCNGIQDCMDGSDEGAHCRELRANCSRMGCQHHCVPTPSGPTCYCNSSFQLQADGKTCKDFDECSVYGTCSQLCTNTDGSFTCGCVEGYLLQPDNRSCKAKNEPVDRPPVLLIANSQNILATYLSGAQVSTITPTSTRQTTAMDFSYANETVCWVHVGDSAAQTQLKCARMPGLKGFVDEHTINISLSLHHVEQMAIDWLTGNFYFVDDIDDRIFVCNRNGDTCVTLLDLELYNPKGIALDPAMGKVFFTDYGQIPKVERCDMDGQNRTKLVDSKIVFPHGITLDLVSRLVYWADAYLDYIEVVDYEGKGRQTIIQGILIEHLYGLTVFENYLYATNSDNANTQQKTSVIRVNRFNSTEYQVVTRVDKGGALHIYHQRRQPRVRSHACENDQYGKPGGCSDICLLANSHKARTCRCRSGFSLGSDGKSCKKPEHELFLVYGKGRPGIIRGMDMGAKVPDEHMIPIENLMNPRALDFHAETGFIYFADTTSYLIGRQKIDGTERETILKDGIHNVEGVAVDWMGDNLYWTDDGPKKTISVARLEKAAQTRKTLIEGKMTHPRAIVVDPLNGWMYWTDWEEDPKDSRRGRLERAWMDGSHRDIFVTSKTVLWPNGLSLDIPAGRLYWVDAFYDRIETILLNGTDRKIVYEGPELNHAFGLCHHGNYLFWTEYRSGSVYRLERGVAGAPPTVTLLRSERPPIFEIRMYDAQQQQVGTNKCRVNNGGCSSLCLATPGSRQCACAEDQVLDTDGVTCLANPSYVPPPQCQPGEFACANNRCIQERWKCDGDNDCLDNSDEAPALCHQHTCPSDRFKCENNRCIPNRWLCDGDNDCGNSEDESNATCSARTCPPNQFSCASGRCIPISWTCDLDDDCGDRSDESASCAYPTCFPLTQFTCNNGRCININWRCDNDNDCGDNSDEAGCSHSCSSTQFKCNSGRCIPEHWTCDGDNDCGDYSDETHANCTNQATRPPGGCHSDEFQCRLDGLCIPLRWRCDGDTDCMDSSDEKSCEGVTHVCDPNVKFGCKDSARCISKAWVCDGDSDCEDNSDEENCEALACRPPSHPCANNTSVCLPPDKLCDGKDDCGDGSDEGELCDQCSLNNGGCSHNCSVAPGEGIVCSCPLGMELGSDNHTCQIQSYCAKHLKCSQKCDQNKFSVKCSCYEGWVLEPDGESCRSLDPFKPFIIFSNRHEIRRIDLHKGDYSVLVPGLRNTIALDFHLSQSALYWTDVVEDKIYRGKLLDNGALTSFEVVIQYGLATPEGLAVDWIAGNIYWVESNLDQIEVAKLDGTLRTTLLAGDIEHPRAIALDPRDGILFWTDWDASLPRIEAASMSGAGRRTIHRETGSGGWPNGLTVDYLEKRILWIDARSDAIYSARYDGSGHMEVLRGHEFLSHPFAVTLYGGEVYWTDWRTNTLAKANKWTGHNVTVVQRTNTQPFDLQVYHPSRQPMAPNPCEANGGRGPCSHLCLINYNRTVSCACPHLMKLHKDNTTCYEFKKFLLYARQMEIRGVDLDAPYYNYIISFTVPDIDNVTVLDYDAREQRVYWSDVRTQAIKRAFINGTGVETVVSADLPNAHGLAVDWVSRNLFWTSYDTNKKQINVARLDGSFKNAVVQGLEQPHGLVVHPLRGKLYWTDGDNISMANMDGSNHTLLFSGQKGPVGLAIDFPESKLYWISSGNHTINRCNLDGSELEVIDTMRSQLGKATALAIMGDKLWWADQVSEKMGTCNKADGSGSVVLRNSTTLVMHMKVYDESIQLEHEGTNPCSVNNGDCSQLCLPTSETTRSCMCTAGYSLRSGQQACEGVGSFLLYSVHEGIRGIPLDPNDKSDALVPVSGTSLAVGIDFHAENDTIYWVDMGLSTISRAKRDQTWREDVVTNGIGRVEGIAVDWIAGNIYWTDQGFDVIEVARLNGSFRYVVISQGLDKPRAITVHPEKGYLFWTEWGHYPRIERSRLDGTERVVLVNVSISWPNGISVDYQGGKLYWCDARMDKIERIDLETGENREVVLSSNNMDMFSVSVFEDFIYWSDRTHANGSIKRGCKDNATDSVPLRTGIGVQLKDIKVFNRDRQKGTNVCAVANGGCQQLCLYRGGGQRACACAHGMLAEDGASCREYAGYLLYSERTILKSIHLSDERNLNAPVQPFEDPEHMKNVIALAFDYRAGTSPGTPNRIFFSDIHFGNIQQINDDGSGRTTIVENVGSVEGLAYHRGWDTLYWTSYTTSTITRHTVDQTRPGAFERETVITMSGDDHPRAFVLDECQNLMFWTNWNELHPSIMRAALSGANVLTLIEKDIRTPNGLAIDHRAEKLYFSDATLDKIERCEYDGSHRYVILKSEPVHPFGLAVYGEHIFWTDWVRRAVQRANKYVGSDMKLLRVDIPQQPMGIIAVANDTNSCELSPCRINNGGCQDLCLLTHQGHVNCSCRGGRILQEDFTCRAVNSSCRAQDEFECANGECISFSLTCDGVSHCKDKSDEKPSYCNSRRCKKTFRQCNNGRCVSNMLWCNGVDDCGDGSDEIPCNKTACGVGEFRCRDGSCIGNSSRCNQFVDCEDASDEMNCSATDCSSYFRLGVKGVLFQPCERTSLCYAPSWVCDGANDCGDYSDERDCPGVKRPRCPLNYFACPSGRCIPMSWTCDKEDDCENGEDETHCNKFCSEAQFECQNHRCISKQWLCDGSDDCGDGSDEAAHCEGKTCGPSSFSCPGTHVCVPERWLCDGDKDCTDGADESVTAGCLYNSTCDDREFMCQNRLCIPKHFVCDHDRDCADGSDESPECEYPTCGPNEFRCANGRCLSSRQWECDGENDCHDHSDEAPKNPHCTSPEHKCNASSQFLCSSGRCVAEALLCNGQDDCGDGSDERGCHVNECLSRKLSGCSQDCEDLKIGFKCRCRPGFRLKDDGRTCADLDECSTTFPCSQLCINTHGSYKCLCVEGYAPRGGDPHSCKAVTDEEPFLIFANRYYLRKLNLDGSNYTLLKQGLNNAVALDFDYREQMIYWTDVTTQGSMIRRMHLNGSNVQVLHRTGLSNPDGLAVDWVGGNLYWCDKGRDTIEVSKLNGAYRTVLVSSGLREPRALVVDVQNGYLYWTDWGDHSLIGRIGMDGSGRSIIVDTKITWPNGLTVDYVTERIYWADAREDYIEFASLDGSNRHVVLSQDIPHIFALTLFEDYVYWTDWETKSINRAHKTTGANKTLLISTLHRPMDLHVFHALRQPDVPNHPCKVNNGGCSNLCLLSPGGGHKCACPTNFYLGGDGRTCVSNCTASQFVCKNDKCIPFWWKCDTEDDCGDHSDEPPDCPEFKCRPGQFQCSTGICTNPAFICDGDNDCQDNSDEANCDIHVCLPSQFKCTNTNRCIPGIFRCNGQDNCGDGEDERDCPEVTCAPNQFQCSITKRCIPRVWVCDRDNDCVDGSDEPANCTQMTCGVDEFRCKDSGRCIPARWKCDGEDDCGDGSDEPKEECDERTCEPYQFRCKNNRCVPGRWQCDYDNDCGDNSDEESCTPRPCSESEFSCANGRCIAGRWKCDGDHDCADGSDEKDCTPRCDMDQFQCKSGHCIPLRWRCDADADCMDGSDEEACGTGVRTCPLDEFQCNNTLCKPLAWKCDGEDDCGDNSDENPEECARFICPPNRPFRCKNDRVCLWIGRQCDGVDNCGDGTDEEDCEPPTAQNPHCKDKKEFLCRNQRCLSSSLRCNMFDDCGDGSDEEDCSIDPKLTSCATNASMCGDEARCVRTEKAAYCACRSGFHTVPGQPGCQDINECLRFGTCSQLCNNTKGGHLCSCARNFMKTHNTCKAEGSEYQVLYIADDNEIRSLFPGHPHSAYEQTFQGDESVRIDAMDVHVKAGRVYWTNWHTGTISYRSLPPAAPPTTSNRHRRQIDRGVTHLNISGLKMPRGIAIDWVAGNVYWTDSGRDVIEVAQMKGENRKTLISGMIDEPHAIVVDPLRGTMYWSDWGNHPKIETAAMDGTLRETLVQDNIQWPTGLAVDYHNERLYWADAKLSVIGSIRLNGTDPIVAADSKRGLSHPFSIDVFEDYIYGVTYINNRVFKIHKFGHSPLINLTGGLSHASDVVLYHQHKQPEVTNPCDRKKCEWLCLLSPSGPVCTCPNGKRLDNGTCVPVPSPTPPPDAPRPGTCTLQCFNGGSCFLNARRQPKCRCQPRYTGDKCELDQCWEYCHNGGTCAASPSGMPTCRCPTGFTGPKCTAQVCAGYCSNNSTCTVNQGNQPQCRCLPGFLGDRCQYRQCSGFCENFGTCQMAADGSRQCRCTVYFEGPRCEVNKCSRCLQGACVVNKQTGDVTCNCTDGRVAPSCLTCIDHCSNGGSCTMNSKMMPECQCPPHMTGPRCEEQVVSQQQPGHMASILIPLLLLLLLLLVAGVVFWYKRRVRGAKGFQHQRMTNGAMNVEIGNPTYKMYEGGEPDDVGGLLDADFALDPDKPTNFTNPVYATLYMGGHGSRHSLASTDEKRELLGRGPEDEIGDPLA

Substance: calreticulin (CRT) (ligand)
- IFN alpha MFI (Fold Change), RAW264.7 M1 macrophages pulsed with calreticulin 10 ug/ml for 20 min: 7.5 fold
- IFN beta MFI (Fold Change), RAW264.7 M1 macrophages pulsed with calreticulin 10 ug/ml for 20 min: 7 fold
- IL-12 MFI (Fold Change), RAW264.7 M1 macrophages pulsed with calreticulin 10 ug/ml for 20 min: 3.5 fold
- IL-15 MFI (Fold Change), RAW264.7 M1 macrophages pulsed with calreticulin 10 ug/ml for 20 min: 3.5 fold
